From patent publication US20220340636A1

Target: human IR-B overexpressed on NIH 3T3 mouse fibroblast cells (human) (UniProt P06213)
Experiment: cell-based or functional assay

Substance | fold less active than hIns, Akt phosphorylation assay [fold] | log [EC50 (nM)], Akt phosphorylation (pAkt Ser473) [log nM] | fold greater efficiency of Akt phosphorylation than the PTM-free analogue [fold]
Con-Ins G1 (ligand) | 10 | 0.78 | 
sCon-Ins G1 (ligand) |  | 0.9 | 8
